Assay results as given in the nanobody polyreactivity screen of Harvey et al. (2022).

Test: yeast display, Sf9 membrane polyspecificity reagent, FACS + sequencing; frameworks hold sequencing errors
Method in brief: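 Galactose induction of a Saccharomyces cerevisiae BJ5465 synthetic nanobody display library ran 36–48 hours. The cells were then stained for 1 hour at 4 °C with 10% biotinylated, detergent-solubilized Sf9 membrane reagent, pulled down on streptavidin microbeads and FACS-sorted into low and high (top ~1%) gates on expression and reagent-binding fluorescence. Labels for polyreactivity follow the gate of origin.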

**Q.** With “QVQLVESVGGLVQAGGSLRLSCAASGNNFDIYDMGWYRQAPGKERELVAAISSGGSTYYADSVKGRFTISRDTAKNTVYFQMNSLKPEDSAVYYCAESRVGYYRYEYWGQGTQVTVSS” as the sequence, how does the “polyreactivity (PSR sort gate)” value read?
**A.** low polyreactivity

**Q.** With “QVQLVESVGGLVQAGGSLRLSCAASGNTFSYNAMGWYRQAPGKERELVAAIRWSGGSTYYADSVKGRFTISRDNAKNTVYLQMNSLKPEDTAVYYCNARYASTNYGWFSYYWGQGTQVTVSS” as the sequence, how does the “polyreactivity (PSR sort gate)” value read?
**A.** high polyreactivity

**Q.** With “QVQLVESVGGLVQAGGSLRLSCAASGRIFAVYAMGWYRQAPGKEREFVAAISYSGGITYYADSVKGRFTISRDNAKNTVYLQMNSLKPEDTAVYYCNAYYYFWGQGTQVTVSS” as the sequence, how does the “polyreactivity (PSR sort gate)” value read?
**A.** low polyreactivity

**Q.** For “QVQLVESVGGLVQAGGSLRLSCAASGRIFHWYAMGWYRQAPGKERELVAAIRWTGGSTYYADSVKGRFTISRDNAKNTVYLQMNSLKPEDTAVYYCAAKGYTGIFYEMDYWGQGTQVTVSS”, which “polyreactivity (PSR sort gate)” value is on record?
**A.** low polyreactivity

**Q.** For “QVQLVESVGGLVQAGGSLRLSCAASGRIFTSYAMGWYRQAPGKERELVAAIRFNGDSTYYADSVKGSFTISRDNAKNTVYLQMNSLKPEDTAVYYCAASRYRGSFRYTEYYWGQGTQVTVSS”, which “polyreactivity (PSR sort gate)” value is on record?
**A.** high polyreactivity

**Q.** With “QVQLVESVGGLVQAGGSLRLSCAASGRIFVNAMGWYRPAPGKESEVVAAINTRGGSTYYADSVKGRFTISRDNAKNTVYLQLNSLKPEDTAVYYCAARFYTSSRYNYWGQGTQGTVSS” as the sequence, how does the “polyreactivity (PSR sort gate)” value read?
**A.** high polyreactivity

**Q.** For “QVQLVESVGGLVQAGGSLRLSCAASGRIFWKYTMGWYRQAPGKERELVAAIRSAGGSTYYADSVKGRFTISRDNAKNTVYLQMNSLKPEDTAVYYCAAEPSQRYPLSGYYYWGQGTQVTVSS”, which “polyreactivity (PSR sort gate)” value is on record?
**A.** low polyreactivity

**Q.** Which “polyreactivity (PSR sort gate)” value does the source give for “QVQLVESVGGLVQAGGSLRLSCAASGRIFYKNVMGWYRQAPRKERELVAAISTSTGRTYYADSVNGRFTISRDNAKNTVYLQMNSLKPEDTAVYYCNAVRGLTNGVLYRYDYWGQGTQVTVSS” here?
**A.** high polyreactivity

**Q.** With “QVQLVESVGGLVQAGGSLRLSCAASGRIFYNYVMGWYRQAPGKERELVAAISSDGGRTYYADSVKGRFTISRDNAKNTVYLQMNSLKPEDTAVYYCAAEWPYGGNGPGHTYEYWGQGTQVTVSS” as the sequence, how does the “polyreactivity (PSR sort gate)” value read?
**A.** high polyreactivity

**Q.** For “QVQLVESVGGLVQAGGSLRLSCAASGRIIRWYAMGWYRQAPGKERELVAAISGSGGSTYYADSVKGRFTISRDNAKNTVYLQMNSLKPEDTAVYYGAAGYYLRRYYYWGQGTQVTVSS”, which “polyreactivity (PSR sort gate)” value is on record?
**A.** high polyreactivity

**Q.** With “QVQLVESVGGLVQAGGSLRLSCAASGRTFGHYAMGWYRQEPGKERELVAAITSRGGSTNYADSVKGRFTISRDNAKNTVYLQMNSLKPEDTAVYYCAADTLIPDYSATFGYWGEGTQVTVSS” as the sequence, how does the “polyreactivity (PSR sort gate)” value read?
**A.** high polyreactivity

**Q.** For “QVQLVESVGGLVQAGGSLRLSCAASGRTFRAYAMGWYRQEPGKERELVAAIRWGGGRTYYADSVKGRFTISRDNAKYTVYLQMNSLKPEDTAVYYCAADRTYDYDYWGQGTLVTVSS”, which “polyreactivity (PSR sort gate)” value is on record?
**A.** high polyreactivity

**Q.** For “QVQLVESVGGLVQAGGSLRLSCAASGRTFWWYTMGWYRQAPGKERELVAVISSTGGRTYYADSVKGSFTISRDNAKNTVYLQMNSLKPEDTAVYYCAAEYVSAKWEYGYWGQGTQVTVSS”, which “polyreactivity (PSR sort gate)” value is on record?
**A.** low polyreactivity

**Q.** Which “polyreactivity (PSR sort gate)” value does the source give for “QVQLVESVGGLVQAGGSLRLSCAASGSIFADYAMGWYRQAPGKERELVAAMTGSGGRTYYADSVKGRFTISRDNAKNTVYLHMNSLKPEDTAVYYCAAYQVGWDPYPRYDYWGQGTQVTVSS” here?
**A.** low polyreactivity

**Q.** Which “polyreactivity (PSR sort gate)” value does the source give for “QVQLVESVGGLVQAGGSLRLSCAASGSIFDYNGMGRYRQAPGKERELVATITLSTARTYYADSVKGRFTISRDNAKNTVYLQMNSLKPEDTAVYYCATRYPKFRRRNYWGQGTQVTVSS” here?
**A.** high polyreactivity

**Q.** Which “polyreactivity (PSR sort gate)” value does the source give for “QVQLVESVGGLVQAGGSLRLSCAASGSIFFTYTMGWYRQAPGKERELVAAISSGGITNYADSVKGRFTISRDNAKKTVYFQMNSLKPEDTAVYYCAVDGGEFSSYGYWGQGTQVTVSS” here?
**A.** low polyreactivity

**Q.** With “QVQLVESVGGLVQAGGSLRLSCAASGSIFQPYAMGWYRHAPGKEREFVAAISRSGGITYYADSVKGRFTISRDNAKNTVYLQMNSLKPEDTAVYYCATGRQVVRSYSEGDYCGQGTQVTVSS” as the sequence, how does the “polyreactivity (PSR sort gate)” value read?
**A.** low polyreactivity

**Q.** Which “polyreactivity (PSR sort gate)” value does the source give for “QVQLVESVGGLVQAGGSLRLSCAASGSIFSYYAMGWYRQAPGKERELVAAITISGSSTYYADSVKGRFTISRDNAKNTVYLQMNSLKPEDTAVYYCNARTIRNWSGQHIYDYWGQGTQVTVSS” here?
**A.** high polyreactivity

**Q.** With “QVQLVESVGGLVQAGGSLRLSCAASGSIFVKYAMGWYRQAPGKECEMVPAISGSGGSTYYADSVKGRFTISRDNAKNTVYLQMNSLKQEDTAVYYCAADDYFYAGTLPGWWYDYWGQGTQVTVSS” as the sequence, how does the “polyreactivity (PSR sort gate)” value read?
**A.** low polyreactivity

**Q.** For “QVQLVESVGGLVQAGGSLRLSCAASGSIFVRNAMGWYRQAPGKERELVAGISRSGGSTNYADSVKGRFTISRDNAKNTVYLQMNSLKPEDTAVYYCAASRLVWVGRPWYQVRGDYWGQGTHVTVSS”, which “polyreactivity (PSR sort gate)” value is on record?
**A.** high polyreactivity

**Q.** With “QVQLVESVGGLVQAGGSLRLSCAASGSIFYYNTMGWYRQAPGKVRELVATISSDGGTNYADSVKGRFTISRDNAKNTVYLQMNSLKPEDTAVYYCAAAVSPYSYWPGFDYWGQGTQVTVSS” as the sequence, how does the “polyreactivity (PSR sort gate)” value read?
**A.** low polyreactivity

**Q.** Which “polyreactivity (PSR sort gate)” value does the source give for “QVQLVESVGGLVQAGGSLRLSCAASGSMFKVYAMGWYRQAPGKEREFVAAITSSDSNTNYADSVKGRFTISRDNAKNTVYLQMNSLKPEDTAVYYCNKDGGGDSYWYDYWGQGTQVTVSS” here?
**A.** low polyreactivity

**Q.** With “QVQLVESVGGLVQAGGSLRLSCAASGSNFGSYAMGWYRQAPGKERSTYYADSVKGRFTISRDNAKNTVYLQMNSLKPEDTAVYYCAADTYGYQGSAGGHWGQGTQVTVSS” as the sequence, how does the “polyreactivity (PSR sort gate)” value read?
**A.** low polyreactivity

**Q.** Which “polyreactivity (PSR sort gate)” value does the source give for “QVQLVESVGGLVQAGGSLRLSCAASGSTFAFNAMGWYRQAPGKEREFVAAITWRGGSTYYADSVKGRFTISRDNAKNTVYLQMNSLKPEDTAVYYCARRPGYALTWRVSGRYDYWGQGTQVTVSS” here?
**A.** high polyreactivity

**Q.** With “QVQLVESVGGLVQAGGSLRLSCAASGSTFKAYAVGWYRQAPGKEGELVAAITKSGGRTYYADSVKGRFTISLDNAKNTVYLQMNSLKPEDTAVYYCAAVFRPDSSAFRYYYWGQGTQVTVSS” as the sequence, how does the “polyreactivity (PSR sort gate)” value read?
**A.** high polyreactivity

**Q.** Which “polyreactivity (PSR sort gate)” value does the source give for “QVQLVESVGGLVQAGGSLRLSCAASGSTFVDYAMGWYRQAPGKERELVAGINGSGGSTYYADSVKGRFTISRDNAKNTVYLQMNSLKPEDTAVYYCNARNPWRKRSQGYSWGQGTQVTVSS” here?
**A.** low polyreactivity

**Q.** With “QVQLVESVGGLVQAGGSLRLSCAASGSTFYRYAMGWYRQAPGKERELVAAISSDGTTYYADSVKGRFTISRDNAKNTVYLQLNSLKPEDTAVYYCAKRGYYRSRRYDYWGQGTLVTVSS” as the sequence, how does the “polyreactivity (PSR sort gate)” value read?
**A.** high polyreactivity

**Q.** Which “polyreactivity (PSR sort gate)” value does the source give for “QVQLVESVGGLVQAGGSLRLSCAASGSTYDHNAMGWSRHAPGKERELVAAISSDGSTNYADSVKGRFTISRDNAKNTVYLQMNSLKPEDTGVYYCNADGVYLGDYEYWGQGTQVTVSS” here?
**A.** low polyreactivity

**Q.** With “QVQLVESVGGLVQAGGSLRLSCAASGSTYPYYAMGWYRQAPGKERELVAASTSGGSTNYADSVKGRFTISRDNAKNTVYLQMNSLKPEDTSVYYCATDWSVDLWTWYYYWGQGTQVTVSS” as the sequence, how does the “polyreactivity (PSR sort gate)” value read?
**A.** high polyreactivity

**Q.** Which “polyreactivity (PSR sort gate)” value does the source give for “QVQLVESVGGLVQAGGSLRLSCAASGYTFFYAMGWYRQAPGKERELVASITSAASTTYADSVKGRFTISRDNAKNTVYLQMNSLKPEDTAVYYCAASHSWWFYPGYYYWGQGTQVTVSS” here?
**A.** high polyreactivity

**Q.** For “QVQLVESVGGLVQAGGSLRLSCAASVRTFSSYAMGWYRKPPGKERELVAVITSGSSTHYADSVKGRFTISRDNAKNTVYLQMNSLKPEDTAVYYCAARDIREIDCISYWYDYWGQGTQVTVSS”, which “polyreactivity (PSR sort gate)” value is on record?
**A.** high polyreactivity

**Q.** Which “polyreactivity (PSR sort gate)” value does the source give for “QVQLVESVGGLVQAGGSLRLSCAASVYTFPRYTMGWYRQAPGKERELVAAINWSGGSTYYADSVKRRFTISRDNAKNTVYLQMNSLKPEDTAVYYCNKAYVSRYDYWGQGTQVTVSS” here?
**A.** high polyreactivity

**Q.** For “QVQLVESVGGLVQAGGSLRLSCAATGFILAPYAMGWYRQSPGKETELVAAITRSGGITYYADSVKGRFTISRDNAKNTVYLQMNSLKPEDTAVYYCAARNYRYRYARAYDYWGQGTQVTVSS”, which “polyreactivity (PSR sort gate)” value is on record?
**A.** high polyreactivity

**Q.** For “QVQLVESVGGLVQAGGSLRLSCASSGFIFATNTMGCYRQAPGKERALVAAMSRSGGSTYYADSVKGRFTISRDNAKNTVYLQMNSLKPEDTAVYYCAADVRLRSTRARFDYWGQGTQVTVSS”, which “polyreactivity (PSR sort gate)” value is on record?
**A.** high polyreactivity

**Q.** Which “polyreactivity (PSR sort gate)” value does the source give for “QVQLVESVGGLVQAGGSLRLSCDASGGIFWVYAMGWYRQAPGKERELVAAISNSDTSTSYADSVKGRFTISRDNAKNTVYLQMNSLKPEDTAVYYCNADSPSLSGDYWGQGTQVTVSS” here?
**A.** low polyreactivity

**Q.** With “QVQLVESVGGLVQAGGSLRLSCSASGITFSYNAMGWYRQAPGKERELVAAISDIGGSTYYADSVKGRFTISRDNAKNTVYLQMNSLKPEDTAVYYCAADEYYQDEYDYWGQGTQVTVSS” as the sequence, how does the “polyreactivity (PSR sort gate)” value read?
**A.** low polyreactivity

**Q.** Which “polyreactivity (PSR sort gate)” value does the source give for “QVQLVESVGGLVQAGGSLRLSCSASGSIIYSYAMGWYRQAPGKERELVADITTGGGSTYYADSVKGRFTISRDNAKNTVYLQMNSLKPEDTAVYYCAAEQDTVWFLWIVDYCGQGTQVTVSS” here?
**A.** low polyreactivity

**Q.** With “QVQLVESVGGLVQAGGSLRLSSAASGLIFDVYPMGWYSQGPGKERELVAAISTSGGRTYYADSVKGRFTISRDNAKNTVYLQMTSLKPEDTAVYYCAAVSPHNRYGYKYDYWGQGTQVTVSS” as the sequence, how does the “polyreactivity (PSR sort gate)” value read?
**A.** high polyreactivity

**Q.** With “QVQLVESVGGLVQAGGSLRLSSAASGRTFKGNAMGCYSQAHGKERELVAVITGSGGSTYYADSVKGRFTISRDNAKNTVYLQMNSLKPEDTAVYYCNKKLQRRSWYVYWGLGTQVTVSS” as the sequence, how does the “polyreactivity (PSR sort gate)” value read?
**A.** low polyreactivity

**Q.** Which “polyreactivity (PSR sort gate)” value does the source give for “QVQLVESVGGLVQAGGSLRLSSAASGRTFYFYTMGWYTQAPGKERELVATIRWSAGSTYYADSVKGRFTISRDNAKNTVYLQMNSLKPEDTAVYYCNADPYVYSSWQYGYWGQGTQVTVSS” here?
**A.** high polyreactivity

**Q.** For “QVQLVESVGGLVQAGGSLRLSSAASGRTSWYYAMGWYRQAPGKERELVATITRTTGSTYYADSVKGRFTISRDNAKNTVYLQMNSLKPEDTAVYYCDRLYYFNGDYWGLGTQVTVSS”, which “polyreactivity (PSR sort gate)” value is on record?
**A.** high polyreactivity
